Data as given in US20040146507A1 (Genentech, published 2004).

T1: rhesus CD11a (rhesus, UniProt H9Z8N3 26-1169)
T1 construct: whole, on cells; On rhesus peripheral blood lymphocytes or leukocytes; also called rhCD11a
T1 sequence: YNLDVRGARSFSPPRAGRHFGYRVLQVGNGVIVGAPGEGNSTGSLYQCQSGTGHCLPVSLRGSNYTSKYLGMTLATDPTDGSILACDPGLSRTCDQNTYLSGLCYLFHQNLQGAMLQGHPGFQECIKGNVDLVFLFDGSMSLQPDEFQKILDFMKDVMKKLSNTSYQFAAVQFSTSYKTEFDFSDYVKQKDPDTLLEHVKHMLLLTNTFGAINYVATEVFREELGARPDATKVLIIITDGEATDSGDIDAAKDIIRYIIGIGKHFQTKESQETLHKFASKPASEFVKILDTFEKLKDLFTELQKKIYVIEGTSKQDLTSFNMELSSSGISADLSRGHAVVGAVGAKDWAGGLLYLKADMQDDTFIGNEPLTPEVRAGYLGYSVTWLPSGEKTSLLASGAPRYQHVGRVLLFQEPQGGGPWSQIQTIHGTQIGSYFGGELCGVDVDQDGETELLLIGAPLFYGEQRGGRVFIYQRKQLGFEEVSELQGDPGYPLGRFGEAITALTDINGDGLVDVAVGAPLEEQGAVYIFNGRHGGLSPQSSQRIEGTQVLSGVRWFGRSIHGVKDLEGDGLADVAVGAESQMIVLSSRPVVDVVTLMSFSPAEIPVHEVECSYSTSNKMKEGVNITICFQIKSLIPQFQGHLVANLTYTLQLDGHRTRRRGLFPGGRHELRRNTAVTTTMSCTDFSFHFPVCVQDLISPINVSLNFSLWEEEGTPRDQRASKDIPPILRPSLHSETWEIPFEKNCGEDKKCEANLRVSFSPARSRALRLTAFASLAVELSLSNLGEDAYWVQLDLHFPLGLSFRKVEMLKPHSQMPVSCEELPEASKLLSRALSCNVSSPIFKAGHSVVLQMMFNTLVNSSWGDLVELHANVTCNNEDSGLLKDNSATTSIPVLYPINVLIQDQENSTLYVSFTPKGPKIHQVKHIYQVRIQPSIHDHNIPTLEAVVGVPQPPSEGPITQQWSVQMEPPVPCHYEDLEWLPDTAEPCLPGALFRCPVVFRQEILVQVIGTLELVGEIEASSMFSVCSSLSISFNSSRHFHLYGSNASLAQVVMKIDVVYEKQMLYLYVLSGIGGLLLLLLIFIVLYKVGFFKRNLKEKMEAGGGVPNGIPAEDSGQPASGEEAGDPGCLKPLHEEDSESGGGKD


What was measured:
rhesus CD11a = target: T1, rhesus CD11a; assay: rhesus PBL binding
human CD11a = target: T2, human CD11a (human, UniProt P20701 26-1170); assay: FACScan, Jurkat cells
T2 construct: whole, on cells; On Jurkat T-cells or human peripheral blood mononuclear cells, as part of LFA-1; also called CD11a on Jurkat cells; alpha subunit of LFA-1
Procedure: Aliquots of 10⁶ Jurkat T-cells were incubated with serial dilutions of humanized and control antibodies in PBS-0.1% BSA-10 mM sodium azide for 45 min at 4° C. The cells were washed and then incubated in fluorescein-conjugated goat anti-human F(ab′)₂ (Organon Teknika, Westchester, Pa.) for 45 min at 4° C. Cells were washed and analysed on a FACScan (Becton Dickinson, Mountain View, Calif.). 8×10³ cells were acquired by list mode and gated by forward light scatter versus side light scatter, thereby excluding dead cells and debris.
To determine which CDR residues were involved in binding to human CD11a an alanine-scan (Cunningham et al., Science 244:1081 (1989)) was performed on the CDR residues of HuIgG1. Each mutant was tested for binding to CD11a on Jurkat cells. In the light chain only CDR-L3 contributes to binding.

| Binder | Var.EC50/HuIgG1 EC50 (rhesus CD11a) | Var.EC50/HuIgG1 EC50 (human CD11a) |
| --- | --- | --- |
| HuIgG1 mutant AsnL92Ala (antibody, V domains shown, HuIgG1 mutant, human IgG1; Kabat numbering) VH: EVQLVESGGGLVQPGGSLRLSCAASGYSFTGHWMNWVRQAPGKGLEWVGMIHPSDSETRYNQKFKDRFTISVDKSKNTLYLQMNSLRAEDTAVYYCARGIYFYGTTYFDYWGQGTLVTVSS VL: DIQMTQSPSSLSASVGDRVTITCRASKTISKYLAWYQQKPGKAPKLLIYSGSTLQSGVPSRFSGSGSGTDFTLTISSLQPEDFATYYCQQHAEYPLTFGQGTKVEIKR | 3.3 ratio | 3.3 ratio |
| HuIgG1 mutant HisH52Ser (antibody, V domains shown, HuIgG1 mutant, human IgG1; Kabat numbering) VH: EVQLVESGGGLVQPGGSLRLSCAASGYSFTGHWMNWVRQAPGKGLEWVGMISPSDSETRYNQKFKDRFTISVDKSKNTLYLQMNSLRAEDTAVYYCARGIYFYGTTYFDYWGQGTLVTVSS VL: DIQMTQSPSSLSASVGDRVTITCRASKTISKYLAWYQQKPGKAPKLLIYSGSTLQSGVPSRFSGSGSGTDFTLTISSLQPEDFATYYCQQHNEYPLTFGQGTKVEIK | – | 5 ratio |
| HuIgG1 mutant L2 (antibody, V domains shown, HuIgG1 mutant, human IgG1; Kabat numbering) VH: EVQLVESGGGLVQPGGSLRLSCAASGYSFTGHWMNWVRQAPGKGLEWVGMIHPSDSETRYNQKFKDRFTISVDKSKNTLYLQMNSLRAEDTAVYYCARGIYFYGTTYFDYWGQGTLVTVSS VL: DIQMTQSPSSLSASVGDRVTITCRASKTISKYLAWYQQKPGKAPKLLIYAGAALQSGVPSRFSGSGSGTDFTLTISSLQPEDFATYYCQQHNEYPLTFGQGTKVEIKR | – | 1.1 ratio |
| HuIgG1 mutant HisH32Ala (antibody, V domains shown, HuIgG1 mutant, human IgG1; Kabat numbering) VH: EVQLVESGGGLVQPGGSLRLSCAASGYSFTGAWMNWVRQAPGKGLEWVGMIHPSDSETRYNQKFKDRFTISVDKSKNTLYLQMNSLRAEDTAVYYCARGIYFYGTTYFDYWGQGTLVTVSS VL: DIQMTQSPSSLSASVGDRVTITCRASKTISKYLAWYQQKPGKAPKLLIYSGSTLQSGVPSRFSGSGSGTDFTLTISSLQPEDFATYYCQQHNEYPLTFGQGTKVEIK | – | 2.3 ratio |
| HuIgG1 mutant LysH73Ala (antibody, V domains shown, HuIgG1 mutant, human IgG1; Kabat numbering) VH: EVQLVESGGGLVQPGGSLRLSCAASGYSFTGHWMNWVRQAPGKGLEWVGMIHPSDSETRYNQKFKDRFTISVDASKNTLYLQMNSLRAEDTAVYYCARGIYFYGTTYFDYWGQGTLVTVSS VL: DIQMTQSPSSLSASVGDRVTITCRASKTISKYLAWYQQKPGKAPKLLIYSGSTLQSGVPSRFSGSGSGTDFTLTISSLQPEDFATYYCQQHNEYPLTFGQGTKVEIK | – | 5.2 ratio |
| HuIgG1 mutant H3B (antibody, V domains shown, HuIgG1 mutant, human IgG1; Kabat numbering) VH: EVQLVESGGGLVQPGGSLRLSCAASGYSFTGHWMNWVRQAPGKGLEWVGMIHPSDSETRYNQKFKDRFTISVDKSKNTLYLQMNSLRAEDTAVYYCARGIYFYGAAAFDYWGQGTLVTVSS VL: DIQMTQSPSSLSASVGDRVTITCRASKTISKYLAWYQQKPGKAPKLLIYSGSTLQSGVPSRFSGSGSGTDFTLTISSLQPEDFATYYCQQHNEYPLTFGQGTKVEIK | – | 34.7 ratio |
| HuIgG1 mutant H1 (antibody, V domains shown, HuIgG1 mutant, human IgG1; Kabat numbering) VH: EVQLVESGGGLVQPGGSLRLSCAASGYAFAGAWMNWVRQAPGKGLEWVGMIHPSDSETRYNQKFKDRFTISVDKSKNTLYLQMNSLRAEDTAVYYCARGIYFYGTTYFDYWGQGTLVTVSS VL: DIQMTQSPSSLSASVGDRVTITCRASKTISKYLAWYQQKPGKAPKLLIYSGSTLQSGVPSRFSGSGSGTDFTLTISSLQPEDFATYYCQQHNEYPLTFGQGTKVEIK | – | 5.9 ratio |

Now from value to binder:

| Var.EC50/HuIgG1 EC50 (rhesus CD11a) | Var.EC50/HuIgG1 EC50 (human CD11a) | Binder |
| --- | --- | --- |
| – | 11.8 ratio | HuIgG1 mutant TyrL94Ala (antibody, V domains shown, HuIgG1 mutant, human IgG1; Kabat numbering) VH: EVQLVESGGGLVQPGGSLRLSCAASGYSFTGHWMNWVRQAPGKGLEWVGMIHPSDSETRYNQKFKDRFTISVDKSKNTLYLQMNSLRAEDTAVYYCARGIYFYGTTYFDYWGQGTLVTVSS VL: DIQMTQSPSSLSASVGDRVTITCRASKTISKYLAWYQQKPGKAPKLLIYSGSTLQSGVPSRFSGSGSGTDFTLTISSLQPEDFATYYCQQHNEAPLTFGQGTKVEIKR |
| – | 2.1 ratio | HuIgG1 mutant SerH55Asn (antibody, V domains shown, HuIgG1 mutant, human IgG1; Kabat numbering) VH: EVQLVESGGGLVQPGGSLRLSCAASGYSFTGHWMNWVRQAPGKGLEWVGMIHPSDNETRYNQKFKDRFTISVDKSKNTLYLQMNSLRAEDTAVYYCARGIYFYGTTYFDYWGQGTLVTVSS VL: DIQMTQSPSSLSASVGDRVTITCRASKTISKYLAWYQQKPGKAPKLLIYSGSTLQSGVPSRFSGSGSGTDFTLTISSLQPEDFATYYCQQHNEYPLTFGQGTKVEIK |
| – | 1.4 ratio | HuIgG1 mutant ThrH100bAla (antibody, V domains shown, HuIgG1 mutant, human IgG1; Kabat numbering) VH: EVQLVESGGGLVQPGGSLRLSCAASGYSFTGHWMNWVRQAPGKGLEWVGMIHPSDSETRYNQKFKDRFTISVDKSKNTLYLQMNSLRAEDTAVYYCARGIYFYGTAYFDYWGQGTLVTVSS VL: DIQMTQSPSSLSASVGDRVTITCRASKTISKYLAWYQQKPGKAPKLLIYSGSTLQSGVPSRFSGSGSGTDFTLTISSLQPEDFATYYCQQHNEYPLTFGQGTKVEIK |
| – | 1.4 ratio | HuIgG1 mutant TyrH99Ala (antibody, V domains shown, HuIgG1 mutant, human IgG1; Kabat numbering) VH: EVQLVESGGGLVQPGGSLRLSCAASGYSFTGHWMNWVRQAPGKGLEWVGMIHPSDSETRYNQKFKDRFTISVDKSKNTLYLQMNSLRAEDTAVYYCARGIYFAGTTYFDYWGQGTLVTVSS VL: DIQMTQSPSSLSASVGDRVTITCRASKTISKYLAWYQQKPGKAPKLLIYSGSTLQSGVPSRFSGSGSGTDFTLTISSLQPEDFATYYCQQHNEYPLTFGQGTKVEIK |
| – | 10.9 ratio | HuIgG1 mutant TyrH97Ala (antibody, V domains shown, HuIgG1 mutant, human IgG1; Kabat numbering) VH: EVQLVESGGGLVQPGGSLRLSCAASGYSFTGHWMNWVRQAPGKGLEWVGMIHPSDSETRYNQKFKDRFTISVDKSKNTLYLQMNSLRAEDTAVYYCARGIAFYGTTYFDYWGQGTLVTVSS VL: DIQMTQSPSSLSASVGDRVTITCRASKTISKYLAWYQQKPGKAPKLLIYSGSTLQSGVPSRFSGSGSGTDFTLTISSLQPEDFATYYCQQHNEYPLTFGQGTKVEIK |
| – | 7.6 ratio | HuIgG1 mutant TyrH100cAla (antibody, V domains shown, HuIgG1 mutant, human IgG1; Kabat numbering) VH: EVQLVESGGGLVQPGGSLRLSCAASGYSFTGHWMNWVRQAPGKGLEWVGMIHPSDSETRYNQKFKDRFTISVDKSKNTLYLQMNSLRAEDTAVYYCARGIYFYGTTAFDYWGQGTLVTVSS VL: DIQMTQSPSSLSASVGDRVTITCRASKTISKYLAWYQQKPGKAPKLLIYSGSTLQSGVPSRFSGSGSGTDFTLTISSLQPEDFATYYCQQHNEYPLTFGQGTKVEIK |
| – | 6.9 ratio | HuIgG1 mutant SerH28Ala (antibody, V domains shown, HuIgG1 mutant, human IgG1; Kabat numbering) VH: EVQLVESGGGLVQPGGSLRLSCAASGYAFTGHWMNWVRQAPGKGLEWVGMIHPSDSETRYNQKFKDRFTISVDKSKNTLYLQMNSLRAEDTAVYYCARGIYFYGTTYFDYWGQGTLVTVSS VL: DIQMTQSPSSLSASVGDRVTITCRASKTISKYLAWYQQKPGKAPKLLIYSGSTLQSGVPSRFSGSGSGTDFTLTISSLQPEDFATYYCQQHNEYPLTFGQGTKVEIK |
| – | 2.3 ratio | HuIgG1 mutant ThrH100aAla (antibody, V domains shown, HuIgG1 mutant, human IgG1; Kabat numbering) VH: EVQLVESGGGLVQPGGSLRLSCAASGYSFTGHWMNWVRQAPGKGLEWVGMIHPSDSETRYNQKFKDRFTISVDKSKNTLYLQMNSLRAEDTAVYYCARGIYFYGATYFDYWGQGTLVTVSS VL: DIQMTQSPSSLSASVGDRVTITCRASKTISKYLAWYQQKPGKAPKLLIYSGSTLQSGVPSRFSGSGSGTDFTLTISSLQPEDFATYYCQQHNEYPLTFGQGTKVEIK |
| – | 1.1 ratio | HuIgG1 mutant SerL52Ala (antibody, V domains shown, HuIgG1 mutant, human IgG1; Kabat numbering) VH: EVQLVESGGGLVQPGGSLRLSCAASGYSFTGHWMNWVRQAPGKGLEWVGMIHPSDSETRYNQKFKDRFTISVDKSKNTLYLQMNSLRAEDTAVYYCARGIYFYGTTYFDYWGQGTLVTVSS VL: DIQMTQSPSSLSASVGDRVTITCRASKTISKYLAWYQQKPGKAPKLLIYSGATLQSGVPSRFSGSGSGTDFTLTISSLQPEDFATYYCQQHNEYPLTFGQGTKVEIKR |
